Test results reported in PMC6748948, “A Bone Morphogenetic Protein (BMP)-derived Peptide Based on the Type I Receptor-binding Site Modifies Cell-type Dependent BMP Signalling” (Scientific Reports, 2019).

Molecular target: Peptide P3* (BMP9-based peptide from the ALK1-binding site, biotinylated at the N-terminus) (UniProt Q9UK05)
Assay: SPR; Biacore T200; biotinylated P3* immobilised on streptavidin (SA) chip; ALK1-Fc flowed over, injection 4 min, otherwise as for the CM5 assays; steady-state fit

Peptide P3* (BMP9-based peptide from the ALK1-binding site, biotinylated at the N-terminus), sequence (Q9UK05 320-429): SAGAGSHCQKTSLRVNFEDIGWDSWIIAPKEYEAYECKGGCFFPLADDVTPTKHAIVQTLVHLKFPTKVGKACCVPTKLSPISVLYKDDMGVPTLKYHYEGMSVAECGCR
ALK1-Fc (activin receptor like kinase 1, Fc fusion), sequence (P37023 22-118): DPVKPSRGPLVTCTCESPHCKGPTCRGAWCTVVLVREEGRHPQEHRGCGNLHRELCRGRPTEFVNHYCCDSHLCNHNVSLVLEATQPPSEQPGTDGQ

- Kd: 30 mM
Substance: ALK1-Fc (activin receptor like kinase 1, Fc fusion) (from UniProt P37023 22-118)
